Laboratory results: paper PMC8715002, “Biochemical and Structural Characterization of a Novel Bacterial Tannase From Lachnospiraceae bacterium in Ruminant Gastrointestinal Tract” (Frontiers in Bioengineering and Biotechnology, 2021)

What was measured:
Assay in all cases: purified protein
Format in all cases: biochemical, Lachnospiraceae bacterium
Settings in all cases: pH 7.0, 50 °C, 0.2–5 mM substrate
[1] = test system: T1, CCOC(=O)c1cc(O)c(O)c(O)c1
T1 construct: about 68 kDa, monomer; catalytic Ser205/Asp582/His614; forward primer reads MSQSTATR; signal peptide not discussed

[2] = test system: T2, CCCOC(=O)c1cc(O)c(O)c(O)c1
T2 construct: about 68 kDa, monomer; catalytic Ser205/Asp582/His614; forward primer reads MSQSTATR; signal peptide not discussed

COC(=O)c1cc(O)c(O)c(O)c1 = test system: T3, COC(=O)c1cc(O)c(O)c(O)c1
T3 construct: about 68 kDa, monomer; catalytic Ser205/Asp582/His614; forward primer reads MSQSTATR; signal peptide not discussed

[3] = test system: T4, CCCCCCCCCCCCOC(=O)c1cc(O)c(O)c(O)c1
T4 construct: about 68 kDa, monomer; catalytic Ser205/Asp582/His614; forward primer reads MSQSTATR; signal peptide not discussed

Substance: TanALb (tannase from Lachnospiraceae bacterium) (Lachnospiraceae bacterium)
- Km [1]: 2.6 ± 0.19 mM
- kcat [1]: 78.8 ± 10.4 s⁻¹
- kcat/Km [1]: 33300 ± 7300 M⁻¹ s⁻¹
- Km [2]: 2.0 ± 0.22 mM
- kcat [2]: 44.2 ± 3.6 s⁻¹
- kcat/Km [2]: 24500 ± 4000 M⁻¹ s⁻¹
- Km (COC(=O)c1cc(O)c(O)c(O)c1): 2.8 ± 0.35 mM
- kcat (COC(=O)c1cc(O)c(O)c(O)c1): 82.5 ± 6.3 s⁻¹
- kcat/Km (COC(=O)c1cc(O)c(O)c(O)c1): 36400 ± 4400 M⁻¹ s⁻¹
- Km [3]: 1.8 ± 0.26 mM
- kcat [3]: 24.6 ± 5.2 s⁻¹
- kcat/Km [3]: 15300 ± 2100 M⁻¹ s⁻¹
